Test results taken from patent US20210340252A1.

Molecular target: human TIM-3 protein (coated on ELISA plates) (human) (UniProt Q8TDQ0)
Experiment: competition ELISA on plate-coated human TIM-3 against biotinylated WBP340-BMK8 (self-competition), detection with SA-HRP

B1: WBP340-BMK8 (antibody, from another filing, human IgG4, V domains shown)
VH: QVQLVQSGAEVKKPGSSVKVSCKASGYTFTSYNMHWVRQAPGQGLEWMGDIYPGNGDTSYNQKFKGRVTITADKSTSTVYMELSSLRSEDTAVYYCARVGGAFPMDYWGQGTTVTVSS
VL: AIQLTQSPSSLSASVGDRVTITCRASESVEYYGTSLMQWYQQKPGKAPKLLIYAASNVESGVPSRFSGSGSGTDFTLTISSLQPEDFATYFCQQSRKDPSTFGGGTKVEIKR
B1 was tested, and the IC50 (read off the curve) was 2 nM.
